The experiment relates to engraftment of donor Sca-1+ HPCs (donor Ly5.2 cells among recipient PBMCs). Kind of experiment: Cytokine pre-conditioning effect on short term engraftment of donor Sca-1+ HPCs after 200 cGy radiation. The note with it: mice. The experiment is classed as in vivo, C57BL/6-Ly-5.1-Pep3b mice. As to the method:
FIG. 1 is a bar graph showing the cytokine hematopoietic growth factor pretreatment conditioning effect on engraftment of HPCs following 200 cGy radiation in mice, one month after transplantation. Recipient C57BL/6J-Ly-5.1-Pep^3b mice received b.i.d. sc injections of PBS (□) 0.1% BSA, 4 μg rhGCSF (□) in 0.1% BSA, or 4 μg rhGCSF plus 1.0 μg rmSCF(▪) in 0.1% BSA (R&D Systems, Minneapolis, Minn.) for four days. On the fifth day, mice received a single sc injection followed one hour later by a 200 cGy radiation dose. Four hours after irradiation, all mice received 0.5×10^6 Sca-1+BM cells via tail vein injection. Mice were bled 1 month after BMT and PB was analyzed for engraftment. […] The data represent three experiments in series with 2 mice per condition in each experiment. All animals survived this procedure.
The data which forms the basis of the present invention concerns the enhanced in vivo transfer of purified SCA-1+bone marrow derived HPCs using congenic C57BL/6 mice, which differ only at the Ly5 locus. The origin of a cell is detectable by immunoreactivity with either anti-Ly5.1 or anti-Ly5.2 antibodies by FACS of PBMCs. […] Using this system, the effects of pre-transplantation cytokine conditioning on short term engraftment, defined as the percentage of total PBMCs in the recipient that were donor Ly5.2 cells, measured one month after transplantation, have been determined. […]

B1: rhGCSF: recombinant human granulocyte colony stimulating factor (R&D Systems), 4 μg in 0.1% BSA (protein, UniProt P09919 31-207, looked up)
Granulocyte …: TPLGPASSLPQSFLLKCLEQVRKIQGDGAALQEKLVSECATYKLCHPEELVLLGHSLGIPWAPLSSCPSQALQLAGCLSQLHSGLFLYQGLLQALEGISPELGPTLDTLQLDVADFATTIWQQMEELGMAPALQPTQGAMPAFASAFQRRAGGVLVASHLQSFLEVSYRVLRHLAQP
Take B1: the “engraftment (percentage of total PBMCs in the recipient that were donor Ly5.2 cells)” value (b.i.d. sc for four days plus final injection on day 5, 0.5×10^6 Sca-1+ cells iv, measured one month after transplantation) came to 18.9%. The “fold increase in engraftment compared with control” value (one month after transplantation, versus vehicle control (0.1% BSA), p<0.01) is given as “at least a three fold increase”.

Source of the values: patent US6863885B2, “Method of decreasing radiation or radio-mimetic chemotherapy for hematopoietic pluripotent cell engraftment” (The United States of America as represented by the …, priority 1995, dated 2005).
